Experiments:
[1] = target: 19K mutant 123-4 (substitutions for residues 123-124) bait (GAL4(1-147)-19 kD fusion) (yeast; adenovirus) (UniProt P04386); assay: yeast two-hybrid, ONPG beta-galactosidase assay
[2] = target: 19K mutant 14-5 bait (GAL4(1-147)-19 kD fusion) (yeast; adenovirus) (UniProt P04386); assay: yeast two-hybrid, ONPG beta-galactosidase assay
[3] = target: 19K mutant 146-E bait (GAL4(1-147)-19 kD fusion) (yeast; adenovirus) (UniProt P04386); assay: yeast two-hybrid, ONPG beta-galactosidase assay
[4] = target: 19K mutant 29-0 bait (GAL4(1-147)-19 kD fusion) (yeast; adenovirus) (UniProt P04386); assay: yeast two-hybrid, ONPG beta-galactosidase assay
[5] = target: 19K mutant 50-1 (amino acids 50-51) bait (GAL4(1-147)-19 kD fusion) (yeast; adenovirus) (UniProt P04386); assay: yeast two-hybrid, ONPG beta-galactosidase assay
[6] = target: 19K mutant 75-6 (substitution for residues 75-76) bait (GAL4(1-147)-19 kD fusion) (yeast; adenovirus) (UniProt P04386); assay: yeast two-hybrid, ONPG beta-galactosidase assay
[7] = target: 19K mutant 90-6 (amino acids 90-96) bait (GAL4(1-147)-19 kD fusion) (yeast; adenovirus) (UniProt P04386); assay: yeast two-hybrid, ONPG beta-galactosidase assay
[8] = target: Bcl-2 deletion mutant #106-5 (lacks residues 106 to 115) bait in pMA424 (yeast; human); assay: yeast two-hybrid, ONPG beta-galactosidase assay
[9] = target: Bcl-2 deletion mutant #42-8 (lacks residues 42 to 48) bait in pMA424 (yeast; human); assay: yeast two-hybrid, ONPG beta-galactosidase assay
[10] = target: Bcl-2 deletion mutant #80-6 (lacks residues 80 to 86) bait in pMA424 (yeast; human); assay: yeast two-hybrid, ONPG beta-galactosidase assay
[11] = target: GAL4(1-147)-19K fusion protein (adenovirus E1B 19 kD protein bait, wild type) (yeast; adenovirus) (UniProt P04386); assay: yeast two-hybrid, ONPG beta-galactosidase assay
[12] = target: human Bcl-2 bait (pMA424-based GAL4 DNA-binding domain fusion, residues 1-239 of Bcl2), wild type (yeast; human); assay: yeast two-hybrid, ONPG beta-galactosidase assay
[13] = target: GAL4(1-147)-19K fusion protein (adenovirus E1B 19 kD protein bait, wild type) (yeast; adenovirus) (UniProt P04386); assay: yeast two-hybrid, ONPG beta-galactosidase assay, relative to the 19K bait
[14] = target: human Bcl-2 bait (pMA424-based GAL4 DNA-binding domain fusion, residues 1-239 of Bcl2), wild type (yeast; human); assay: as above

Chain of Nip3 (19K-interacting protein 3), protein coded by cDNA clone 91, tagged with the GAL4 activation domain (chain): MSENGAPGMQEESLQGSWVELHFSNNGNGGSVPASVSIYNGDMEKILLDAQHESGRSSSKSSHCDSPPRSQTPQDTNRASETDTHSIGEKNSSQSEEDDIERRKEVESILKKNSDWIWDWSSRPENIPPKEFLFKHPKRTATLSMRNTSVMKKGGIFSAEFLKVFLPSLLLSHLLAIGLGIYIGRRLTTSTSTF
Chain of Nip1 (19K-interacting protein 1), protein coded by cDNA clone 22, tagged with the GAL4 activation domain (chain): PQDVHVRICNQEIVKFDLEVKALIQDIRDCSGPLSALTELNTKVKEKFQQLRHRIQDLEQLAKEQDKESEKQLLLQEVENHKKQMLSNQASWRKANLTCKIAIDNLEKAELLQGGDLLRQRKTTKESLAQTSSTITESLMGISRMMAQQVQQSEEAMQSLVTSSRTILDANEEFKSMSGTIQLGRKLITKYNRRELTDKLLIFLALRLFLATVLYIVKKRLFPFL
Chain of Nip2 (19K-interacting protein 2), protein coded by cDNA clone 44, tagged with the GAL4 activation domain (chain): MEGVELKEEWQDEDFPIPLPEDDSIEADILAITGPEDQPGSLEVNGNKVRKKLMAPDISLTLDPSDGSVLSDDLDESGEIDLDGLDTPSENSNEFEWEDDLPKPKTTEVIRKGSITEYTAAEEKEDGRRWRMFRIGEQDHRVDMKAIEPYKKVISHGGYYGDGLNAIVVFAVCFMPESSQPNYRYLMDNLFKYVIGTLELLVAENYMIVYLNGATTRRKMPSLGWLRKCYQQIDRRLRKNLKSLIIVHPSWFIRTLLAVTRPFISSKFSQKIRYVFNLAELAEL

Nip1 (19K-interacting protein 1), protein coded by cDNA clone 22, tagged with the GAL4 activation domain
relative level of lacZ expression (ONPG) (relative level) [1]: 0.05
relative level of lacZ expression (ONPG) (relative level) [2]: 0.61
relative level of lacZ expression (ONPG) (relative level) [3]: 0.87
relative level of lacZ expression (ONPG) (relative level) [4]: 0.33
relative level of lacZ expression (ONPG) (relative level) [5]: < 0.01
relative level of lacZ expression (ONPG) (relative level) [6]: 1.72
relative level of lacZ expression (ONPG) (relative level) [7]: < 0.01
relative level of lacZ expression (ONPG) (relative level) [8]: 0.01
relative level of lacZ expression (ONPG) (relative level) [9]: 0.16
relative level of lacZ expression (ONPG) (relative level) [10]: 1.21
relative level of lacZ expression (ONPG) (relative level) [11]: 1
relative level of lacZ expression (ONPG) (relative level) [12]: 1
relative level of lacZ expression (ONPG) (relative level) [13]: 1
relative level of lacZ expression (ONPG) (relative level) [14]: 1.8

Nip2 (19K-interacting protein 2), protein coded by cDNA clone 44, tagged with the GAL4 activation domain
relative level of lacZ expression (ONPG) (relative level) [1]: 0.24
relative level of lacZ expression (ONPG) (relative level) [2]: 0.55
relative level of lacZ expression (ONPG) (relative level) [3]: 0.98
relative level of lacZ expression (ONPG) (relative level) [4]: 0.32
relative level of lacZ expression (ONPG) (relative level) [5]: 0.09
relative level of lacZ expression (ONPG) (relative level) [6]: 1.6
relative level of lacZ expression (ONPG) (relative level) [7]: 0.04
relative level of lacZ expression (ONPG) (relative level) [8]: 0.06
relative level of lacZ expression (ONPG) (relative level) [9]: 0.09
relative level of lacZ expression (ONPG) (relative level) [10]: 0.8
relative level of lacZ expression (ONPG) (relative level) [11]: 1
relative level of lacZ expression (ONPG) (relative level) [12]: 1
relative level of lacZ expression (ONPG) (relative level) [13]: 1
relative level of lacZ expression (ONPG) (relative level) [14]: 0.7

Nip3 (19K-interacting protein 3), protein coded by cDNA clone 91, tagged with the GAL4 activation domain
relative level of lacZ expression (ONPG) (relative level) [1]: 0.1
relative level of lacZ expression (ONPG) (relative level) [2]: 0.16
relative level of lacZ expression (ONPG) (relative level) [3]: 0.28
relative level of lacZ expression (ONPG) (relative level) [4]: 0.19
relative level of lacZ expression (ONPG) (relative level) [5]: 0.01
relative level of lacZ expression (ONPG) (relative level) [6]: 0.22
relative level of lacZ expression (ONPG) (relative level) [7]: 0.01
relative level of lacZ expression (ONPG) (relative level) [8]: 0.11
relative level of lacZ expression (ONPG) (relative level) [9]: 0.19
relative level of lacZ expression (ONPG) (relative level) [10]: 2.87
relative level of lacZ expression (ONPG) (relative level) [11]: 1
relative level of lacZ expression (ONPG) (relative level) [12]: 1
relative level of lacZ expression (ONPG) (relative level) [13]: 1
relative level of lacZ expression (ONPG) (relative level) [14]: 1.5

From patent US5858678
